Consider two substances from patent publication US20120172313A1, “TREATMENT OF PROLIFERATIVE DISEASES” (priority 2010, published 2012).

Bridges are numbered along the chain shown (N, C = ends). Where no end group is shown, it is not given here.

Data set [1] concerns human red blood cells. In words: Red blood cell (RBC) lysis. The following applies: 100 μM, 16 h, 37° C. The protocol: Following ficoll-paque separation, RBCs were collected and washed with 1×PBS and pelleted at 1000×g for 10 min. RBCs were diluted 1 in 10 for treatment with increasing concentrations (0-100 μM) of defensins and incubated over-night under a humidified atmosphere of 5% CO2/95% air. […] The degree of red blood cell lysis was measured as absorbance at 412 nm.

Data set [2] concerns Fusarium oxysporum f. sp. vasinfectum. The following applies: read-out: IC50, growth of Fusarium oxysporum f. sp. vasinfectum. The protocol: Permeabilization of fungal membranes has also been reported for some plant defensins (Lay and Anderson, 2005). […] These five fungal species are all members of the ascomycete phylum and are distributed among three classes in the subphylum pezizomycotiria. These fungi are agronomically important fungal pathogens.
SP Sepharose elution fractions containing rNaD1 were loaded onto an analytical C8 RP-HPLC column and eluted using a 40 min linear gradient (0-100% buffer B). Proteins were detected by absorbance at 215 nm. […] Graph represents data from three separate experiments performed in quadruplicate. Error bars represent standard error of the mean.

For data set [3], the system named is human coronary artery smooth muscle cells (CASMC) and umbilical vein endothelial cells (HUVEC). The following applies: read-out: IC50, viability of normal primary cells (MTT), 48 h.
Procedure: Tumour cells were seeded in a 96-well microtitre plate (50 μL/well) at an optimum density determined in the cell optimisation assay as above. Background control wells (n=8) containing the same volume of complete culture medium were included in the assay. The microtitre plate was incubated overnight at 37° C., prior to the addition of proteins at various concentrations and the plate was incubated for a further 48 h. The cell viability 3-(4,5-dimethyl-2-thiazolyl)-2,5-diphenyl-2H-tetrazolium bromide (MTT, Sigma-Aldrich) assay was carried out as follows: the MTT solution (1 mg/mL) was added to each well (100 μL) and the plate incubated for 2-3 h at 37° C. under a humidified atmosphere containing 5% CO2/95% air. Subsequently, for adherent cell lines, the media was removed and replaced with dimethyl sulfoxide (100 μL, DMSO, Sigma-Aldrich), and placed on a shaker for 5 min to dissolve the tetrazolium salts. In the case of suspension cells, prior to the addition of DMSO the cells are spun at 1500 rpm for 5 min. Absorbance of each well was measured at 570 nm and the IC50 values (the protein concentration to inhibit 50% of cell growth) were determined using the Origin Software Program. […]
Data set [4] can be described thus: Acute oral toxicity (OECD Test Guideline 423). It is filed as in vivo, C57BL/6 mice. From the text:
This study was based on OECD Test Guideline 423 (OECD [Organisation for Economic Co-operation and Development]. 2001. Guideline 423: Acute Oral Toxicity—Acute Toxic Class Method. Paris: OECD).
Healthy female C57BL/6 mice derived from the same litter were obtained from either the Central Animal House at La Trobe University (Bundoora Campus) or from Monash Animal Services. The animals were identified by ear punch and kept three per cage during the study. The animals will be housed and maintained in groups of three in cages as per standard animal house conditions at La Trobe University.
On the day of dosing, the test mice were weighed and fasted for 4 h prior to dose administration. Just prior to dosing, the mice were reweighed. […] The protein solution was administered by oral gavage using a round-tipped canula needle. Feed was replaced 1 h after dosing. The mice received standard rodent diet and water ad libitum.
The mice were observed hourly for 4 h after dosing on day 1 and at least twice daily thereafter until scheduled killing on day 14. Signs of gross toxicity, adverse pharmacologic effects and behavioural changes were assessed and recorded daily as was the food and water consumption. The mice were reweighed at days 7 or 8 and 14. On the last day of the study (day 14), the mice were killed by inhalation of carbon dioxide and necropsied. All the mice received a gross pathological examination. The weights of the following organs were recorded: brain, heart, liver, lungs, kidneys, gastrointestinal tract, spleen and thymus. Subsequently, the samples were fixed in 4% (v/v) paraformaldehyde until paraffin embedding, sectioning and histopathological examination by the Australian Phenomics Network, University of Melbourne node. The gastrointestinal tract was divided into the following sections: stomach, duodenum, jejunum, ileum, cecum and colon.

For data set [5], the system named is Phoma betae. The following applies: 1 μg/mL; cited from earlier work.
Data set [6] relates to Sclerotinia sclerotiorum. The following applies: 100 μg/mL; cited from earlier work.
Where [7] appears, read: oral gavage, 20, 50 or 300 mg NaD1/kg body weight, 14 days.

For “RECKTESNTFPGICITKPPCRKACISEKFTDGHCSKILRRCLCTKPC (disulfide 3-47, 14-34, 20-41, 24-43) [NaD1]”, the “RBC lysis (relative to water = 100% lysis)” value in data set [1] was approximately 50%. Moreover, the IC50 in data set [2] is approximately 1 µM. In data set [3], the IC50 fell in the range of 7.5 to 12 µM. The “adverse effects on mice” value in data set [4] (administered orally at up to 300 mg NaD1/kg body weight) is recorded as “no adverse effects”. For the same substance, the histopathology of organs result in data set [4] (highest dose of 300 mg NaD1/kg body weight) is “possible slight irritation to the stomach epithelium”. In data set [4] (setting [7]), the body weight entry is given as “no treatment related effects on body weight”; the clinical signs result is “no signs of gross toxicity, adverse pharmacologic effects or behavioural changes”; the survival entry is reported as “survived to termination of the study”. The histopathology of organs entry in data set [4] (oral gavage, doses below 300 mg NaD1/kg body weight) is given as “No pathologies, attributable to protein administration”.

In the case of “Rs-AFP2: antifungal plant defensin from radish seeds (QKLCQRPSGTWSGVCGNNNACKNQCIRLEKARHGSCNYVFPAHKCICYFPC; UniProt P30230 30-80, looked up)”, in data set [5], the “growth of Phoma betae” value is reported as “inhibits the growth”. The “activity against Sclerotinia sclerotiorum” value in data set [6] is “ineffective”.
